Laboratory results reported in the supplement of paper PMC10724198.
± gives the standard deviation of the averaged measurements.

Key:
Saccharomyces cerevisiae [1] = assay: protein stability index of tFT-peptide fusion (C-terminal peptide) (PSI (0-1 scale)); higher = more stable (slower turnover)
Description: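 MPS profiling in S. cerevisiae of the tFT-X12 degron library: putative degron peptides plus stable controls, 12 aa, fused to the C-terminus of a sfGFP-mCherry timer. Cells are FACS-sorted into 8 mCherry/sfGFP bins and deep-sequenced. PSI runs from 0 (unstable) to 1 (stable). Backgrounds are wild type, das1Δ and doa10Δ at 30 °C, and wild type, das1Δ, cdc34-1 and cdc53-1 at 37 °C; 2-3 technical replicates each.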

Saccharomyces cerevisiae [2] = assay: as above; conditions: genetic background: wild type; temperature: 30 C
[3] = genetic background: cdc34-1, temperature: 37 C
[4] = genetic background: cdc53-1, temperature: 37 C
[5] = genetic background: das1 deletion, temperature: 30 C
[6] = genetic background: das1 deletion, temperature: 37 C
[7] = genetic background: doa10 deletion, temperature: 30 C
[8] = genetic background: wild type, temperature: 30 C
[9] = genetic background: wild type, temperature: 37 C
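Note: PSI is a weighted mean of sequencing reads over stability bins, variants kept only with over 10 reads, mCherry proximal and sfGFP distal, peptide attached via GGGS linker.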

| Sequence | protein stability index (Saccharomyces cerevisiae [1]; [3]) | protein stability index (Saccharomyces cerevisiae [1]; [4]) | protein stability index (Saccharomyces cerevisiae [1]; [5]) | protein stability index (Saccharomyces cerevisiae [1]; [6]) | protein stability index (Saccharomyces cerevisiae [1]; [7]) | protein stability index (Saccharomyces cerevisiae [1]; [8]) | protein stability index (Saccharomyces cerevisiae [1]; [9]) | protein stability index (Saccharomyces cerevisiae [2]) |
| --- | --- | --- | --- | --- | --- | --- | --- | --- |
| VELRNCYLLVKA | 0.204 ± 0.0059 | 0.282 ± 0.013 | 0.222 ± 0.037 | 0.381 ± 0.013 | 0.178 ± 0.018 | 0.22 ± 0.032 | 0.34 ± 0.0065 | 0.327 ± 0.037 |
| VFFLAFYFYRCF | 0.405 ± 0.02 | 0.464 ± 0.018 | 0.416 ± 0.015 | 0.545 ± 0.0085 | 0.186 ± 0.0064 | 0.194 ± 0.029 | 0.365 ± 0.0085 | 0.262 ± 0.02 |
| VFMSVAPVSVLG | 0.115 ± 0.047 | 0.118 ± 0.045 | 0.198 ± 0.026 | 0.2589 ± 0.00033 | 0.154 ± 0.016 | 0.184 ± 0.023 | 0.235 ± 0.0013 | 0.29 ± 0.015 |
| VFSAIPDWLILA | 0.492 ± 0.017 | 0.5094 ± 0.0035 | 0.387 ± 0.041 | 0.5492 ± 0.0043 | 0.279 ± 0.013 | 0.319 ± 0.016 | 0.462 ± 0.018 | 0.453 ± 0.0079 |
| VFSVTVVFVSVL | 0.158 ± 0.0021 | 0.271 ± 0.062 | 0.192 ± 0.035 | 0.383 ± 0.014 | 0.168 ± 0.011 | 0.191 ± 0.024 | 0.324 ± 0.012 | 0.298 ± 0.046 |
| VFVGGVSVLILF | 0.531 ± 0.051 | 0.638 ± 0.0089 | 0.438 ± 0.026 | 0.602 ± 0.0081 | 0.413 ± 0.0093 | 0.434 ± 0.033 | 0.584 ± 0.0086 | 0.516 ± 0.044 |
| VFWLLVGLGCFS | 0.561 ± 0.017 | 0.563 ± 0.013 | 0.431 ± 0.025 | 0.572 ± 0.0075 | 0.41 ± 0.033 | 0.417 ± 0.028 | 0.5686 ± 0.0022 | 0.481 ± 0.012 |
| VFYWVGVLCGWG | 0.298 ± 0.0073 | 0.391 ± 0.045 | 0.293 ± 0.026 | 0.4352 ± 0.0014 | 0.252 ± 0.012 | 0.29 ± 0.023 | 0.405 ± 0.018 | 0.375 ± 0.007 |
| VGCMVVIWVLWG | 0.153 ± 0.0096 | 0.225 ± 0.025 | 0.19 ± 0.034 | 0.313 ± 0.013 | 0.145 ± 0.001 | 0.18 ± 0.026 | 0.278 ± 0.025 | 0.325 ± 0.043 |
| VGFCICISIMSF | 0.0373 ± 0.016 | 0.109 ± 0.025 | 0.125 ± 0.025 | 0.214 ± 0.023 | 0.09907 ± 0.00077 | 0.108 ± 0.031 | 0.209 ± 0.027 | 0.213 ± 0.046 |
| VGPLAPVCLLVL | 0.445 ± 0.025 | 0.4817 ± 0.0043 | 0.36 ± 0.038 | 0.516 ± 0.013 | 0.325 ± 0.012 | 0.359 ± 0.019 | 0.477 ± 0.0057 | 0.459 ± 0.046 |
| VILCSCSFVLRP | 0.523 ± 0.011 | 0.583 ± 0.023 | 0.373 ± 0.021 | 0.57243 ± 0.00022 | 0.362 ± 0.026 | 0.376 ± 0.02 | 0.5617 ± 0.0053 | 0.401 ± 0.0085 |
| VKIEVICRVSLI | 0.334 ± 0.031 | 0.459 ± 0.028 | 0.403 ± 0.02 | 0.495 ± 0.043 | 0.338 ± 0.0092 | 0.394 ± 0.05 | 0.404 ± 0.0055 | 0.429 ± 0.024 |
| VLCFFWWWCRVC | 0.4 ± 0.021 | 0.525 ± 0.038 | 0.472 ± 0.019 | 0.583 ± 0.044 | 0.353 ± 0.02 | 0.324 ± 0.035 | 0.4133 ± 0.001 | 0.43 ± 0.017 |
| VLFVRGHTLWLM | 0.6124 ± 0.0026 | 0.675 ± 0.01 | 0.556 ± 0.024 | 0.702 ± 0.025 | 0.4861 ± 0.0031 | 0.458 ± 0.017 | 0.6344 ± 0.0035 | 0.505 ± 0.033 |
| VLSCIPRLAIAA | 0.335 ± 0.01 | 0.372 ± 0.019 | 0.284 ± 0.023 | 0.404 ± 0.008 | 0.235 ± 0.0017 | 0.251 ± 0.0058 | 0.318 ± 0.0072 | 0.327 ± 0.017 |
| VLVVTAFTFSCP | 0.352 ± 0.049 | 0.4393 ± 0.00063 | 0.327 ± 0.018 | 0.416 ± 0.022 | 0.319 ± 0.015 | 0.317 ± 0.015 | 0.392 ± 0.02 | 0.324 ± 0.0049 |
| VLVVVRSLSFLS | 0.405 ± 0.065 | 0.51 ± 0.011 | 0.347 ± 0.025 | 0.534 ± 0.015 | 0.308 ± 0.013 | 0.31 ± 0.023 | 0.496 ± 0.013 | 0.382 ± 0.019 |
| VNRRCWISRTLP | 0.599 ± 0.023 | 0.716 ± 0.0041 | 0.645 ± 0.024 | 0.713 ± 0.012 | 0.137 ± 0.039 | 0.174 ± 0.04 | 0.289 ± 0.058 | 0.258 ± 0.065 |
| VPASWLRMLAFC | 0.197 ± 0.0024 | 0.578 ± 0.025 | 0.559 ± 0.024 | 0.701 ± 0.047 | 0.0659 ± 0.0043 | 0.0647 ± 0.013 | 0.0629 ± 0.016 | 0.05335 ± 0.00032 |

| Sequence | protein stability index (Saccharomyces cerevisiae [1]; [3]) | protein stability index (Saccharomyces cerevisiae [1]; [4]) | protein stability index (Saccharomyces cerevisiae [1]; [5]) | protein stability index (Saccharomyces cerevisiae [1]; [6]) | protein stability index (Saccharomyces cerevisiae [1]; [7]) | protein stability index (Saccharomyces cerevisiae [1]; [8]) | protein stability index (Saccharomyces cerevisiae [1]; [9]) | protein stability index (Saccharomyces cerevisiae [2]) |
| --- | --- | --- | --- | --- | --- | --- | --- | --- |
| VRFSAVFVKVGV | 0.547 ± 0.031 | 0.553 ± 0.0091 | 0.395 ± 0.026 | 0.5703 ± 0.0032 | 0.377 ± 0.0083 | 0.402 ± 0.023 | 0.5317 ± 0.0017 | 0.4727 ± 0.0026 |
| VRIGCSLLFFLP | 0.661 ± 0.036 | 0.734 ± 0.014 | 0.589 ± 0.0067 | 0.6934 ± 0.0062 | 0.478 ± 0.015 | 0.501 ± 0.015 | 0.6267 ± 0.0046 | 0.532 ± 0.051 |
| VRSELHINSFIH | 0.656 ± 0.0076 | 0.767 ± 0.017 | 0.682 ± 0.017 | 0.741 ± 0.017 | 0.499 ± 0.047 | 0.501 ± 0.015 | 0.681 ± 0.025 | 0.53 ± 0.054 |
| VRTFVFLVGYCE | 0.594 ± 0.032 | 0.62 ± 0.024 | 0.406 ± 0.027 | 0.614 ± 0.023 | 0.393 ± 0.035 | 0.394 ± 0.034 | 0.557 ± 0.04 | 0.458 ± 0.036 |
| VRVFSLVVCWVV | 0.297 ± 0.064 | 0.359 ± 0.0043 | 0.262 ± 0.026 | 0.441 ± 0.0051 | 0.199 ± 0.004 | 0.219 ± 0.028 | 0.367 ± 0.032 | 0.414 ± 0.037 |
| VSSSFSVLVLLF | 0.448 ± 0.017 | 0.545 ± 0.035 | 0.375 ± 0.037 | 0.571 ± 0.013 | 0.317 ± 0.02 | 0.339 ± 0.026 | 0.52 ± 0.035 | 0.421 ± 0.021 |
| VTLVIYVLVQLT | 0.148 ± 0.062 | 0.198 ± 0.11 | 0.156 ± 0.044 | 0.259 ± 0.0037 | 0.123 ± 0.02 | 0.15 ± 0.031 | 0.216 ± 0.037 | 0.188 ± 0.035 |
| VTTTWTWTVRLC | 0.538 ± 0.045 | 0.631 ± 0.016 | 0.54 ± 0.018 | 0.656 ± 0.034 | 0.0752 ± 0.019 | 0.0807 ± 0.024 | 0.149 ± 0.0059 | 0.15 ± 0.024 |
| VVAALTPLITVA | 0.0655 ± 0.023 | 0.084 ± 0.0042 | 0.183 ± 0.021 | 0.202 ± 0.0041 | 0.151 ± 0.011 | 0.179 ± 0.024 | 0.138 ± 0.0061 | 0.261 ± 0.04 |
| VVLAFFFWFFVG | 0.359 ± 0.04 | 0.518 ± 0.028 | 0.383 ± 0.034 | 0.507 ± 0.011 | 0.25 ± 0.0047 | 0.265 ± 0.038 | 0.362 ± 0.01 | 0.365 ± 0.016 |
| VVLRCGCLVFIN | 0.419 ± 0.027 | 0.5767 ± 0.0053 | 0.398 ± 0.023 | 0.6443 ± 0.0057 | 0.0928 ± 0.0026 | 0.105 ± 0.017 | 0.0809 ± 0.0089 | 0.134 ± 0.051 |
| VVRMRPRLFSLY | 0.807 ± 0.04 | 0.8659 ± 0.0019 | 0.687 ± 0.047 | 0.816 ± 0.025 | 0.186 ± 0.011 | 0.208 ± 0.0086 | 0.354 ± 0.033 | 0.3429 ± 0.0022 |
| VVTFCCARVTKI | 0.665 ± 0.048 | 0.6997 ± 0.0057 | 0.622 ± 0.038 | 0.665 ± 0.01 | 0.585 ± 0.026 | 0.571 ± 0.025 | 0.651 ± 0.021 | 0.522 ± 0.043 |
| VVTFLCPLVGHV | 0.527 ± 0.023 | 0.501 ± 0.0074 | 0.372 ± 0.029 | 0.546 ± 0.012 | 0.341 ± 0.017 | 0.381 ± 0.013 | 0.507 ± 0.028 | 0.478 ± 0.019 |
| VVWFCGFFFVMV | 0.386 ± 0.0054 | 0.449 ± 0.029 | 0.356 ± 0.036 | 0.509 ± 0.016 | 0.365 ± 0.031 | 0.325 ± 0.03 | 0.465 ± 0.012 | 0.399 ± 0.032 |
| VWCVFHVWSGRL | 0.49 ± 0.035 | 0.585 ± 0.016 | 0.42 ± 0.023 | 0.6175 ± 0.0012 | 0.38 ± 0.007 | 0.409 ± 0.018 | 0.58 ± 0.012 | 0.494 ± 0.029 |
| VWFVFVCAVCVL | 0.191 ± 0.029 | 0.298 ± 0.015 | 0.205 ± 0.012 | 0.3464 ± 0.003 | 0.138 ± 0.033 | 0.163 ± 0.023 | 0.271 ± 0.012 | 0.273 ± 0.0097 |
| VWGLGWLVVGVG | 0.179 ± 0.0033 | 0.218 ± 0.029 | 0.185 ± 0.023 | 0.284 ± 0.012 | 0.165 ± 0.0044 | 0.179 ± 0.018 | 0.267 ± 0.0082 | 0.221 ± 0.011 |
| VWPLAFFLRFFI | 0.547 ± 0.063 | 0.6021 ± 0.0019 | 0.529 ± 0.017 | 0.682 ± 0.017 | 0.247 ± 0.015 | 0.233 ± 0.013 | 0.3623 ± 0.0036 | 0.288 ± 0.014 |
